Experimental data from patent publication US20060204974A1.

Target: rat angiotensin type 1a receptor (AT1aR) (rat) (UniProt P25095)
Assay: cell-based or functional assay

UniProt P25095, sequence (P25095 whole entry): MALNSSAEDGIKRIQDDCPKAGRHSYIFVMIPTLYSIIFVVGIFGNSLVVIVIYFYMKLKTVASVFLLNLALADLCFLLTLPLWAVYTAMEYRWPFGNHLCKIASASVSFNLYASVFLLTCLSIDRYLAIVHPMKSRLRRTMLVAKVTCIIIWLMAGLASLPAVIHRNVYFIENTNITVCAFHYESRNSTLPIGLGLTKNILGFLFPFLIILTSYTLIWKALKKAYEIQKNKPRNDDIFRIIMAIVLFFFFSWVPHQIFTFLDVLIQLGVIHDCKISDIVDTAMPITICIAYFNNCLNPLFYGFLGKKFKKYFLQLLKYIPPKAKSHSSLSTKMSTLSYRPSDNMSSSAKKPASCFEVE

Ang II (100 nM) stimulated inositol phosphate production, Ang II-basal (cpm), CHO cells stably expressing E1,2,3: 260 cpm
Ang II (100 nM) stimulated inositol phosphate production, Ang II-basal (cpm), CHO cells stably expressing E1,3: 1320 cpm
Ang II-induced IP production (cpm), 100 nM Ang II, CHO clones stably expressing QM: 1640 cpm
Ang II-induced IP production (cpm), 100 nM Ang II, CHO clones stably expressing WT: 322 cpm
angiotensin II/basal inositol phosphate accumulation, 100 nM angiotensin II for 20 min, A10 cells transiently transfected with E2 plasmid (ratio (angiotensin II/basal)): 1.35
angiotensin II/basal inositol phosphate accumulation, 100 nM angiotensin II for 20 min, A10 cells transiently transfected with ΔE2 plasmid (ratio (angiotensin II/basal)): 1.8
Substance: Angiotensin II (from UniProt P01019 25-476) (peptide)
